Here are results for 25 molecules from PMC6379675, “Structural insights into chromosome attachment to the nuclear envelope by an inner nuclear membrane protein Bqt4 in fission yeast” (Nucleic Acids Research, 2018).

What is called Kd is the concentration at which binding is half-saturated. Read a low Kd as tighter binding. As usually defined, the IC50 is the point on the concentration scale where inhibition reaches its midpoint.

The target of assay [1] is T1, Bqt4_(2–140), N-terminal domain of Bqt4 (S. pombe, UniProt O60158 2-140).
T1 construct: Bqt4, S. pombe inner nuclear membrane protein, residues 2-140; also called Bqt4NTD; Bqt4NTD^WT; source: E. coli BL21(DE3), purified (Ni-NTA, on-beads Ulp1 digestion, Superdex200); not shown: His6, N-terminal, cleaved; SUMO, N-terminal, cleaved
T1 sequence (looked up): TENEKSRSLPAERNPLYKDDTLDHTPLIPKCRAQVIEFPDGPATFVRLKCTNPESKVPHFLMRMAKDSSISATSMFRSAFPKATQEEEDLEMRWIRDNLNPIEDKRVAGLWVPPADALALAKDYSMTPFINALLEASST
The assay can be described thus: ITC; ITC200; peptide (Rap1 479-527 at 1000–1500 μM) titrated into Bqt4 2-140 (100–150 μM), 20°C, 20 mM Tris–HCl pH 8.0, 150 mM NaCl; one binding site model; two independent experiments. As to conditions: both partners purified. For orientation: In ITC the heat of successive injections is recorded.

The target in assay [2] is T2, Bqt4_(2–140), N-terminal domain of Bqt4 (S. pombe, UniProt O60158 2-140).
T2 chain: T1 sequence (looked up)
The assay can be described thus: ITC.

For assay [3], the target named is T3, Bqt4NTD^F61A (S. pombe, UniProt O60158 2-140, F61A).
T3 sequence: T1 sequence (looked up) with F60A
In words: ITC.

A further assay deals with T4, Bqt4NTD D90R (S. pombe, UniProt O60158 2-140, D90 into arginine).
T4 sequence: T1 sequence (looked up) with D89R
In words: ITC.

The target of the next assay is T5, Bqt4NTD R33A (S. pombe, UniProt O60158 2-140, R33A).
T5 sequence: T1 sequence (looked up) with R32A
In words: ITC.

Assay [4] addresses T1, Bqt4_(2–140), N-terminal domain of Bqt4. In words: fluorescence polarisation; competition: FITC-labeled Lem2BBM pre-mixed with Bqt4NTD (4°C, 1 h), unlabeled peptides from 10 nM to 200 μM added; 25 mM Tris–HCl pH 8.0, 150 mM NaCl, 10% glycerol; 25°C. As to conditions: both partners purified. On the technique in general: Fluorescence polarisation rises when a labelled molecule tumbles more slowly, as on binding a larger partner.

Assay [5] deals with T2, Bqt4_(2–140), N-terminal domain of Bqt4. In words: ITC.
The target is the same in assay [6]. In words: FP; competition with FITC-Lem2BBM.
The target in a further assay is T6, Bqt4NTD^R48E (S. pombe, UniProt O60158 2-140, R48E).
T6 sequence: T1 sequence (looked up) with R47E
The assay can be described thus: ITC.

For assay [7], the target named is T3, Bqt4NTD^F61A. In words: ITC. This is another data set of the same source.
Assay [8] addresses T2, Bqt4_(2–140), N-terminal domain of Bqt4. The assay can be described thus: ITC.
Assay [9] addresses T7, Bqt4_(2–180) (S. pombe, UniProt O60158 2-180).
T7 chain: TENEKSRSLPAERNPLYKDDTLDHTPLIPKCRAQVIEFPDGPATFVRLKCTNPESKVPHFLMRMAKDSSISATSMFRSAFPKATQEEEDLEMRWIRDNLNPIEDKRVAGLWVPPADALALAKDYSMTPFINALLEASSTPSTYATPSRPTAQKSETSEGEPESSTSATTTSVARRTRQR
The assay can be described thus: ITC.

Assay [10] addresses T8, Bqt4_(2–180) (S. pombe, UniProt O60158 2-180).
T8 construct: Bqt4, S. pombe, residues 2-180; also called N-terminal region of Bqt4; source: E. coli BL21(DE3), purified (Ni-NTA, on-beads Ulp1 digestion, Superdex200); not shown: His6, N-terminal, cleaved; SUMO, N-terminal, cleaved
T8 sequence (looked up): T7 chain
The assay can be described thus: ITC; ITC200; peptide (Rap1 479-527 at 1000–1500 μM) titrated into Bqt4 2-140 (100–150 μM), 20°C, 20 mM Tris–HCl pH 8.0, 150 mM NaCl; one binding site model; two independent experiments. As to conditions: both partners purified.

The target of assay [11] is T2, Bqt4_(2–140), N-terminal domain of Bqt4. In words: ITC.

Where a chain is given by its changes, count along the chain named. In names and notes the source's numbering stands. Like-named read-outs stand apart in the source and are kept apart here. Bounds are passed on as bounds.

B1: Rap1_(479–527) (domain or fragment, S. pombe, UniProt Q96TL7 479-527, looked up)
chain: EIPLLSDYSDSENISEKSSDDEEAFEKQVTSSYSSPIKVKSQGKSSKGS
notes: also called Rap1^WT; wild-type Rap1; source: E. coli BL21(DE3), purified (glutathione-Sepharose 4B, on-beads 3C digestion, Superdex75); not shown: GST, N-terminal, cleaved
For B1, in assay [1], the “fold by which the Bqt4-Lem2 interaction is stronger than this pair” value is 20 fold. The equilibrium dissociation constant (Kd) was 11.4 µM in [2], 909 µM with Bqt4NTD^F61A [3], 14.4 µM with Bqt4NTD D90R and 12.3 µM with Bqt4NTD R33A. For the same molecule, the concentration for half-maximal inhibition (IC50) in assay [4] stood at 50.9 µM.

B2: Rap1_(479-527) S512A (peptide)
chain: B1 chain with S34A
Take B2: the dissociation constant Kd in [5] came to 7.1 µM.

B3: Rap1_(479–527) D499A/E500A (domain or fragment)
chain: B1 chain with D21A, E22A
In the case of B3, in [2], the equilibrium dissociation constant (Kd) stood at 862 µM.

B4: Rap1_(479-527) S513A (peptide)
chain: B1 chain with S35A
Consider B4, for which, in assay [5], the Kd is 7.9 µM.

B5: Rap1_(479-527) S497A (peptide)
chain: B1 chain with S19A
The molecule B5 yielded a Kd in [5] of 9.5 µM.

B6: Rap1_(479-527) S496A (peptide)
chain: B1 chain with S18A
Regarding B6, the affinity in assay [5], expressed as Kd, was 10.6 µM.

B7: Rap1_(479–527) S512E (domain or fragment)
chain: B1 chain with S34E
Consider B7, for which the Kd in assay [5] turned out to be 27.2 µM.

B8: Rap1_(479–527) F503A (domain or fragment)
chain: B1 chain with F25A
Regarding B8, in [2], the dissociation constant (Kd) was 106 µM.

B9: Rap1_(479-527) S496A/S497A (peptide)
chain: B1 chain with S18A, S19A
For B9, binding in assay [5] was put at a Kd of 8 µM.

B10: Rap1_(479–527) V507A (domain or fragment)
chain: B1 chain with V29A
In assay [2], B10 came in with a dissociation constant Kd of 138 µM.

B11: Rap1_(479-527) S512A/S513A (peptide)
chain: B1 chain with S34A, S35A
Turning to B11, binding in assay [5] was characterised by a dissociation constant (Kd) of 7.3 µM.

B12: Rap1_(479–527) S496E (domain or fragment, S. pombe, UniProt Q96TL7 479-527, looked up)
chain: B1 chain with S18E
notes: phosphomimetic; also called Rap1^S496E; source: E. coli BL21(DE3), purified (glutathione-Sepharose 4B, on-beads 3C digestion, Superdex75); not shown: GST, N-terminal, cleaved
Consider B12, for which the binding result in [1] is given as “binds”. For the same molecule, the dissociation constant Kd in assay [5] is 2.4 µM.

B13: Rap1_(479–527) (S496E/S497E) (domain or fragment, S. pombe, UniProt Q96TL7 479-527, looked up)
chain: B1 chain with S18E, S19E
notes: phosphomimetic; also called Rap1^S496E/S497E; source: E. coli BL21(DE3), purified (glutathione-Sepharose 4B, on-beads 3C digestion, Superdex75); not shown: GST, N-terminal, cleaved
Take B13: the “fold increase in binding affinity against wild-type Rap1” value in [1] stood at 10 fold. Further, the dissociation constant Kd in assay [5] came to 0.9 µM. The same molecule registered a half-inhibitory concentration (IC50) in assay [6] of 6.8 µM.

B14: Rap1_(479–527) S512E/S513E (domain or fragment, S. pombe, UniProt Q96TL7 479-527, looked up)
chain: B1 chain with S34E, S35E
notes: phosphomimetic; also called Rap1^S512E/S513E; source: E. coli BL21(DE3), purified (glutathione-Sepharose 4B, on-beads 3C digestion, Superdex75); not shown: GST, N-terminal, cleaved
With B14, the “fold decrease in binding affinity against wild-type Rap1” value in [1] is 10 fold. The molecule also gave a dissociation constant Kd in assay [5] of 115 µM. This molecule also had an IC50 in [6] of over 200 µM.

B15: Lem2_(261–279) (peptide, UniProt Q10109 261-279, looked up)
chain: SAEEDDELFQNYVLQQTRK
notes: 3C cleavage leaves extra N-terminal residues; also called Lem2BBM; source: E. coli BL21(DE3), purified (glutathione-Sepharose 4B, on-beads 3C digestion, Superdex75); not shown: GST, N-terminal, cleaved
Take B15: the dissociation constant Kd is 3.2 µM in the assay with Bqt4NTD^R48E, 46 µM in the assay with Bqt4NTD^F61A [7] and about 0.53 µM in assay [1]. The molecule also had a half-maximal inhibitory concentration (IC50) in assay [4] of 1.2 µM.

B16: Rap1_(220-606) (protein)
chain: SVSKSENKALVNNKRYSDSYFYFSKMRRISIDVDYVDEDLNLINAYLSQFGKKRSLNELCALLSRRFSNRHTFSEWRALFMHFFPFINSEGVDPAILSDRETSAMLDETSDNEVADIDDQMIERKYLFSASEPNTVKSTNRLIFSERKAYAADDSIDNTPSKVPIVNSLSDPRTNRPFFYSNPDSMYRSISNPLHLVDSQHLSPLNRKTHFNNPIGQPQFTCLDDHEKTLRETSFRSLDDMSLRKSNSDNIFVKPGEDLEIPLLSDYSDSENISEKSSDDEEAFEKQVTSSYSSPIKVKSQGKSSKGSSGLDVREHEGSDDDAEVFVDRSPESFGATKVAHTSLEGNAASHKKVEENMQQPVTKKQKKYRMVNEEAHTGPTIIIPSD
In the case of B16, the Kd turned out to be 13.7 µM in assay [8] and 12.9 µM in the assay with Bqt4_(2–180) [9].

B17: Sad1 (residues 88–101) (peptide, UniProt Q09825 88-101, looked up)
chain: SDNEEFENVVKNGH
notes: Sad1, S. pombe spindle pole body-associated protein, residues 88-101 (14 residues); 3C cleavage leaves extra N-terminal residues; also called Sad1BBM; Sad1_(88–101); source: E. coli BL21(DE3), purified (glutathione-Sepharose 4B, on-beads 3C digestion, Superdex75); not shown: GST, N-terminal, cleaved
Turning to B17, the Kd with Bqt4NTD^R48E came out at 262 µM; in [1], 3.7 µM.

B18: Rap1_(403-541) (protein)
chain: DSMYRSISNPLHLVDSQHLSPLNRKTHFNNPIGQPQFTCLDDHEKTLRETSFRSLDDMSLRKSNSDNIFVKPGEDLEIPLLSDYSDSENISEKSSDDEEAFEKQVTSSYSSPIKVKSQGKSSKGSSGLDVREHEGSDDD
On to B18, for which the dissociation constant Kd in assay [8] was 4.8 µM; in the assay with Bqt4_(2–180) [9], 5.4 µM.

B19: Rap1_(495-527) (peptide)
chain: KSSDDEEAFEKQVTSSYSSPIKVKSQGKSSKGS
As to B19, the values for the Kd (in [8]; in the assay with Bqt4_(2–180) [9]) were 14.7 µM and 15.3 µM, respectively.

B20: Rap1_(490-541) (protein)
chain: ENISEKSSDDEEAFEKQVTSSYSSPIKVKSQGKSSKGSSGLDVREHEGSDDD
For B20, the figures for the Kd (in [8]; with Bqt4_(2–180) [9]) were 8.3 µM and 9.7 µM, respectively.

B21: Rap1_(490–513), Bqt4-binding motif of Rap1 (peptide, UniProt Q96TL7 490-513, looked up)
chain: ENISEKSSDDEEAFEKQVTSSYSS
notes: 3C cleavage leaves extra N-terminal residues; also called Rap1BBM; source: E. coli BL21(DE3), purified (glutathione-Sepharose 4B, on-beads 3C digestion, Superdex75); not shown: GST, N-terminal, cleaved
B21: the figures for the equilibrium dissociation constant (Kd) (in assay [8]; with Bqt4_(2–180) [9]) were 11.4 µM and 11 µM, respectively. For the same molecule, the binding result (with Bqt4_(2–180) [10]; in assay [1]) was “binds” each time.

B22: Rap1_(468-541) (protein)
chain: DNIFVKPGEDLEIPLLSDYSDSENISEKSSDDEEAFEKQVTSSYSSPIKVKSQGKSSKGSSGLDVREHEGSDDD
B22: the Kd turned out to be 5.7 µM in assay [8] and 7.9 µM with Bqt4_(2–180) [9].

B23: Rap1_(468-527) (protein)
chain: DNIFVKPGEDLEIPLLSDYSDSENISEKSSDDEEAFEKQVTSSYSSPIKVKSQGKSSKGS
In the case of B23, the values for the Kd (in [8]; with Bqt4_(2–180) [9]) were 5.8 µM and 8.7 µM, respectively.

B24: Lem2_(250-279) (peptide)
chain: SESSSPYSEVDSAEEDDELFQNYVLQQTRK
In the case of B24, in assay [11], the Kd was found to be 0.34 µM.

B25: Rap1_(468-519) (protein)
chain: DNIFVKPGEDLEIPLLSDYSDSENISEKSSDDEEAFEKQVTSSYSSPIKVKS
Consider B25, for which the equilibrium dissociation constant (Kd) in [8] is 6.6 µM; with Bqt4_(2–180) [9], 10.8 µM.
